The record followed here is the nanobody polyreactivity screen of Harvey et al. (2022).

The data set is described as follows: yeast display, Sf9 membrane polyspecificity reagent, FACS + sequencing; frameworks hold sequencing errors. The method, boiled down: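 Genes from sorted yeast were amplified by colony PCR, read by MiSeq 2 × 250 sequencing and filtered on CDR length. These cells carried a synthetic nanobody library in Saccharomyces cerevisiae BJ5465 and were sorted by FACS into low and high (top ~1%) gates on anti-HA and streptavidin fluorescence. Polyreactivity is labelled according to the gate of origin.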
As to “KVQLVESGGGLVQAGGSLRLSCAASGTSSRYVMGLYRQSTGKERELVAAISWSGDSTYYADSVKGRFTISRDNAKNTVNLQMNSLKPEDTAVYYRAKDADFGLGATSYLEYDYWGQGTQVTVSS”, the “polyreactivity (PSR sort gate)” value is reported as “low polyreactivity”. In the case of “KVQLVESGGGLVQAGGSLRLSCDASGSIFTLNAMGWYRQAPGKARELVAAISSGGGTYYSDSVKGRFTISRDNAKNTVYLQMNTLKPEDSAVYYCAAEHYILDDYLCDYDYWGQGTQVTVSS”, the “polyreactivity (PSR sort gate)” value is reported as “high polyreactivity”. The entry for “LDQLVESGGGLVQAGGSLRLSCAASGSIFGPNAMGWNRKAPGKERELVAAISWSGASTYYADSVKGRFTITRDNEKNTVYLQMNSLKPEDTAVYYCAADYYGVSGSGYGYWGQGTQVTVSS” is “low polyreactivity”; for “LLQLQESGGVLVQAGCRLRLICAASGSISVTRAMCWYSQAPGKERELVASTTGGSNNADSVNGRFTISRDNAKTTVYLQMNSLKPEDTAVYYCATEYYGPVYDLDYDYCGQGTQVTVSS” it is “low polyreactivity”. The entry for “LVQLQESGGGLVQAGGSLRLSCAASGTITPGGYKGWYRQAPGKERELVASINVGGSTNYADSVKGRFTISRDNAKKTVYLQMKSLKPEDNAVYYCAVWGRNRLQLSYWGQGTQVTVSS” is “low polyreactivity”; for “LVQLQESGGGLVQEGGSLRMSCAASGTISPGGYMGWYRQAPGKERELVASINVGGSTNYADSVKGRFTISRDNAKNTVYLQMNSLKPEDNAVYYCAVWGRNRLQLSYWGQGTQVTVSS” it is “low polyreactivity”; for “LVQLVESGGCLVQAGGSLRVSCAASGTIFQIKAMGWYRQAPGIEREKVATIRWRGSSTYYADSVKGRFTISRDNAKNTVYLQKNSLKPEDTAVYYSAARAGTLNSGGYYSWGQGTQVSVSS” it is “high polyreactivity”. The entry for “LVQLVESGGGLVQAGGSLRLSCAASGRTFRLNALGWYRPAPGNERELVARITGSSGGSTYSADSVKGRFTISRDNAKNTVYLQMNSLKPEDTAVYYCAARYTPRGKRYDYWGQGTQVTGSS” is “high polyreactivity”; for “LVQLVESGGGLVQAGGSLRLSCAASGSIFRYYVMGWYRQAPGKDRELVAAISTGDRTNYADSVKGRFTISRDNPKKTVYLQMNSQKPEDTAVYYCNADYVVGWARLEFNYWGQGTQVTVSS” it is “low polyreactivity”. Take “LVQLVESGGGLVQAGGSLRLSCAASGSLFVVTAMGWYRQAPGKERELVAAFSSGGRTYYADSVKGRFTISRDNAKNTVYLQMNSVKPEDTAVYYCAAGGWRGHCYWGQGTQVTVSS”: the “polyreactivity (PSR sort gate)” value is “high polyreactivity”.

For the sequence “LVQLVESGGGLVQAGGSLSLSCAAYGRTFAKNAMGWYRQAPGKERDLVAVINRSGGSTYADSVKGRFTISRDNAKNTVYLQMNSLKPEDTAVYYWADYYFRSYSKTYIYPFDYWGQGSQVTVSS”, the “polyreactivity (PSR sort gate)” value is “low polyreactivity”. Take “LVQLVESGGRLVQAGGSLRLSCAASGNIFWYAMGWYRQAPGKERELVAAITYRGSTTYFAYSVKGRVTISRDKAKNTVYLQMNSLHPEDTAVYYCAARASYTRRHVGRPYDYWGQGTQVTVSS”: the “polyreactivity (PSR sort gate)” value is recorded as “high polyreactivity”. As to “PVQHVESGGGLVQAGGSLRLSCAASGSTLRTYAMGWYRQAPGKERELVAAISFSTTSTYYADSVKGRFTISRDNAKNTVYLQMNSLKPEDTADYYCAAGPRTRYQPDLPGCYYSWGQGTQVTVSS”, the “polyreactivity (PSR sort gate)” value is “high polyreactivity”.

For the sequence “PVQLVDSGGGLVQAGGSLRLSCAASGKIFFGYTMGWYRTAPGKERELVAAITYRGGRTYYADSEKGRFTISRDNAKHTVYLQMNSLKPEDTAVYYFAVGGSGYGRYGGGYARDYWGQGTQVTVSS”, the “polyreactivity (PSR sort gate)” value is “high polyreactivity”. As to “PVQLVESGGGLGQAGGSLSLRCAASGSIFTYYAMVWYRQAPGKERELVADISNSGSTYYADSVNGRFTISRDNAKNTVYLQMNRLKPEDSAVSSCNAEYHDLYDYWGQGTQVTVSS”, the “polyreactivity (PSR sort gate)” value is listed as “low polyreactivity”.

Turning to “PVQLVESGGGLVQAGGSLRLSCAASGFTFFYYAMGGYRQGPGKERELVAALNWSGGRTYYADSVKGRFTISRDNAKNTVYLQRNSLKPEDTAVYYCAVDRSWSTRYPAYPGGYWGQGTQVTVSS”, the “polyreactivity (PSR sort gate)” value is on record as “high polyreactivity”. “PVQLVESGGGLVQAGGSLRLSCAASGFTLYDYAMGWYRPAPGKERELVAAISRSGGRTYYADSVKGRFTISRDNAKNTVYLQMNSLKPEDTAVYYCAADILRGQWYEYDYWGQGTQVTVSS”: the “polyreactivity (PSR sort gate)” value was “high polyreactivity”. The entry for “PVQLVESGGGLVQAGGSLRLSCAASGRIFPSYAMGWYRQAPGKERELVATINGDGGSTYYADSVKGRFTISRDNAKNTVYLQMNSLKPEDTAVYYCAKRYPFAAEYDYWGQGTQVTVSS” is “low polyreactivity”; for “PVQLVESGGGLVQAGGSLRLSCAASGRTFGLNGKGWYRQSPGKEREFVATITGSGTSTYYADSVKGRFTISRDNAKNTVYLQMNSLKPEDSAVYFCAALSGLWGYHYYHEYYYWGQGTQVTVSS” it is “low polyreactivity”. The entry for “PVQLVESGGGLVQAGGSLRLSCAASGRTFPFYGMGWYRQAPGKERELVAAISISGGSTYYADSVKGRFTISRDNAKNTVYVQMNSLKPEDTAVYYCAAVGPRSYGFGNGYWGQGTQVTVSS” is “high polyreactivity”; for “PVQLVESGGGLVQAGGSLRLSCAASGSTFRFYTMGWYRQAPGKERELVAAISGSGGSTYYADSVKGRFTISRDNAKNTVYLQMNSLIPEDPAVYFCAADKSRNASHRGYWGQGTQVTVSS” it is “low polyreactivity”; for “PVQLVESGGGLVQAGGSLRLSFAASGRTFWVYAMGWYRQAPGKERELVAAINRRGGGTYYADSVKGRFTISRDNAKNTVYLQMNSLKPEDTPVYYCAAVTRNQGSYRYYYWGQGTQVTVSS” it is “high polyreactivity”. The same measure for “QAQLEESGGGLVQAVGSLRLSCAASGRTFTNNDMGWYIQAPGKERELVAAIRWSGGSTYYADSVKGRFTISRDNAKNTVYFQMNSLKPEDTAVYYCAKGYGYVEAVIVQYDYWGQGTQVTVSS”: “low polyreactivity”. With “QAQLKDSCGGLVQAGGSLRLSCPASGNNTSEYYMGCCRQAPGKGREFVDAIDYGGTTNYADNVKGRFTISRDNAKNTVYLQMNSLRPEDTALYYCAASWDTIGLFAYWGQGSQVTVSS”, the “polyreactivity (PSR sort gate)” value is “high polyreactivity”. For the sequence “QAQLVESGGGLVQAGRSLRLSCAASGSTFRWYAMGWYRQAPGKERELVAAITSSGSTYYADSVKGRFTISRDNAKTTVYLQMNSLKPEDTAVYYCAARANGYWNTYEHDYWGQGIQVTVSS”, the “polyreactivity (PSR sort gate)” value is given as “low polyreactivity”. Turning to “QAQLVESGGGLVQSGGSLRLSCAASGSIFRPYAMGWYRQAPGKERELVAAISSSGGGTYYADSVKGRFTISRDNAKNTVYLQMNILKPEDTSVYLYGSWGQGTQVNVSS”, the “polyreactivity (PSR sort gate)” value is reported as “low polyreactivity”. On to “QDHLVESGGGLVQAGGSLRLSCAASGRTFGRNAMGWYRQAPGKERDFVAAITSSGGSTYYADSVKGRFTISRDNAKNTVYFQMNSLKPEDSAVFYCARSTRYYSWRRMDYWGQGTQVTVSS”, for which the “polyreactivity (PSR sort gate)” value was “high polyreactivity”. The entry for “QDHLVESGGGLVQAGGSLRLSCAASGSISWKNAMGWYRQAPGKERELVAAISSTVTYYADSVKGRFTISRDNAKNTVYLQMNSLKPEDTAVYYCAAVYLGYTTLYTGDYCGQGTQVTVSS” is “low polyreactivity”; for “QDLLVDSGGGLVQAGGSLRVSCAASGYTRFYAMGWYRQAPGKERELVAAISSSGGTTYYADSVKGRFTISRDNAKNNVYLQMNSLKPEDTAVYYCAKFLSYSRTLYDYWGQGTQVTVSS” it is “high polyreactivity”; for “QDLLVESGGGLLQAGGSLRLICAASGYTFTYYAMGWYRQAPGKERELVAAINYSGGRTDYADSVKGRFTLSRDNAKNTVYLQKNSMNPEDTAVYYCAAYTRNGDFDYWGQGTQVTVSS” it is “high polyreactivity”. Turning to “QDLLVESGGGLVQAGGSLRLSCAASGSIFDDYAMGWYRQAPGKERELVAAISSSGTSTYYADSVKGRFTISRDHAKNTVYLQMNSLIPEYTAVYYCAARSAILKSGYLKDYWGQGTQVTVSS”, the “polyreactivity (PSR sort gate)” value is reported as “low polyreactivity”.

“QDPLEESGGGLVQAGGSLRLSCAASGFTFTDYAMGWTRQAPGKERQLVAVISRSGGSTNYADSVKGRFTISRDKAKNTVYLQMNCLKPEDTAVYYCNAGKYLYRHGFLSSGDMYYWGQGTQVTVSS”: the “polyreactivity (PSR sort gate)” value was “high polyreactivity”.

Turning to “QDQHEESGGGLVQAGGSLRLICAASGLIFPRYAMGWYRPAPGKERELVAAITRGGSTYYADSVKGRFTISRDNAKNTVYLQMNSLKPEDTAVYYCNAELPVHWSWYDYWGQGTQVTVSS”, the “polyreactivity (PSR sort gate)” value is on record as “low polyreactivity”. Take “QDQHGESGGGLVQAGGRLRLSGAASGSTFPGNAMGWYRQAPGKERELVAAITSGGRTYYADSVKGRFTISRDNAKNTVYLQMNSLKPEDTAVYYCAVSTPIQRHGETYAKFDYWGQGTQVTVSS”: the “polyreactivity (PSR sort gate)” value is given as “low polyreactivity”. The same measure for “QDQHGESGGGLVQAGGSLRLSCAASGYTFLRNDMGWYRQPHGKVRELVAAISYSGGGTYYADSVKGRFTISRDNAKITVYLQMNSLKPEDTAVYYCNVAQRYYGNFFSSRYEYWGQGTQVTVSS”: “low polyreactivity”; for “QDQHVESAGGLVQAGGSRRLSCAASESMFSTYPMGCYSQAPGTESELVATIRRGGSTYYADSVKGRFTISRDNAKNTVYLQMNSLKPEDSAVYYCAATVSSYPYYRYYSWGQGTQVTVSS”: “high polyreactivity”; for “QDQHVESGGGLVQAGGSLRLSCAASGFIISYYDMGWYRQPPGHESELVATIDWSGGSTYYADSVKGRFTISRDNAKNTVYLQLNSLKPEDTAVYYCNADWIFGSAPSGRYKYDYWGQGTQVTVSS”: “low polyreactivity”. The entry for “QDQHVESGGGLVQAGGSLRLSCAASGGIFYTYTMGWYRQAPGKEREFVAAITRSGDRTYYADSVKGRFTISRDNAKNTGYLQMNSLKPEDTAVYYCNTVTRKNPSGLALDEYNYCGQGTQVTVSS” is “high polyreactivity”; for “QDQHVESGGGLVQAGGSLRLSCAASGIIFDYNAMGWYRQAPGKERELVAAITSTDNTNYADSVKGRLTISRDNAKNTVYLQMNSLKPEDTAVYYCNSDYWLSVVYAMDYWGQGTQVTVSS” it is “low polyreactivity”. The same measure for “QDQHVESGGGLVQAGGSLRLSCAASGLTFGTYAKGWYRQAPGKERELVAAITTGARTYFADSVKGRFTISRDNAKNTVYLKMNSLKPEDTAVYYCAAYKFYSEYEYWGQGTQVTVSS”: “high polyreactivity”.

Turning to “QDQHVESGGGLVQAGGSLRLSCAASGSTFGDNAMGWYRQAPGKERELVAAISRGGRTYYADSVKGRFTISRDNAKNTVYLQMNSLKPEDTAVYYCAATSAYRGYWVLRGLSYDYWGQGTQVTVSS”, the “polyreactivity (PSR sort gate)” value is “high polyreactivity”.
